From PMC3217859, “Protein phosphatase 2a (PP2A) binds within the oligomerization domain of striatin and regulates the phosphorylation and activation of the mammalian Ste20-Like kinase Mst3” (BMC Biochemistry, 2011)
Values belong to the binder of their own block, whether it stands above or below them.

How the values were obtained:
Experiment in all cases: co-IP; anti-HA immunoprecipitates (12CA5 with protein A-Sepharose, or F7 anti-HA-agarose when probing for Mst3 or Mst4; 1.5 h, 4°C) of lysates (1% Nonidet P-40, 0.135 M NaCl, 10% glycerol, 20 mM Tris pH 8.0) of HEK293 cells transfected with HA-striatins; endogenous partners by immunoblot, partner/HA-striatin ratio by chemilumimager against wild type; 50 mM NaF and 100 nM okadaic acid in the lysis buffer in the …
Settings in all cases: partners not purified
[1] = molecular target: T1, HA-tagged Δ(148-166) striatin (human, UniProt O43815 1-780, Δ(148-166))
T1 construct: source: HEK293, transfected, in lysate; not shown: HA, N-terminal, kept
T1 sequence (looked up): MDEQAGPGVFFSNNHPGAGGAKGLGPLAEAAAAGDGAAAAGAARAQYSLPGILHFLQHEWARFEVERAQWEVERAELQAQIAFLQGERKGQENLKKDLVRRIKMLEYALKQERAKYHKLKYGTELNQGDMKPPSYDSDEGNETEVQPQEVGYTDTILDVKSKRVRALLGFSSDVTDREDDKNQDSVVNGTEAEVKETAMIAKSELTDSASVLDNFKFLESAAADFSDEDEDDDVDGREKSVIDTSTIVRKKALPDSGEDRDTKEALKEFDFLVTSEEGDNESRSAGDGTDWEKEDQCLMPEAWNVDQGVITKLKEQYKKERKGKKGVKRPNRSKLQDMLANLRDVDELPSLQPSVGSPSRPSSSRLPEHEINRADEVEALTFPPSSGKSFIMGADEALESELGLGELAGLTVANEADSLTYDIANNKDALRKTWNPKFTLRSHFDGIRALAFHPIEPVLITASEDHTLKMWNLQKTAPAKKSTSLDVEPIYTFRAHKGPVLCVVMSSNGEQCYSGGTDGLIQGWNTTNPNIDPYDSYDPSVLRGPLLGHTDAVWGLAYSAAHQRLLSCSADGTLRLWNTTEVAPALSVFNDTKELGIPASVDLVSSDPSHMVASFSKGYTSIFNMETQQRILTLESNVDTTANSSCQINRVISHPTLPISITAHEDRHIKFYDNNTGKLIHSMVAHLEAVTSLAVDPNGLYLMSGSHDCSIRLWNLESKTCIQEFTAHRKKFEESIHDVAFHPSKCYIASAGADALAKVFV

[2] = molecular target: T2, HA-tagged striatin with deletion of residues 191-269 (human, UniProt O43815 1-780, deletion of residues 191-269)
T2 construct: source: HEK293 or HEK293 stably expressing FLAG-CCM3, transfected, in lysate; not shown: HA, N-terminal, kept
T2 sequence (looked up): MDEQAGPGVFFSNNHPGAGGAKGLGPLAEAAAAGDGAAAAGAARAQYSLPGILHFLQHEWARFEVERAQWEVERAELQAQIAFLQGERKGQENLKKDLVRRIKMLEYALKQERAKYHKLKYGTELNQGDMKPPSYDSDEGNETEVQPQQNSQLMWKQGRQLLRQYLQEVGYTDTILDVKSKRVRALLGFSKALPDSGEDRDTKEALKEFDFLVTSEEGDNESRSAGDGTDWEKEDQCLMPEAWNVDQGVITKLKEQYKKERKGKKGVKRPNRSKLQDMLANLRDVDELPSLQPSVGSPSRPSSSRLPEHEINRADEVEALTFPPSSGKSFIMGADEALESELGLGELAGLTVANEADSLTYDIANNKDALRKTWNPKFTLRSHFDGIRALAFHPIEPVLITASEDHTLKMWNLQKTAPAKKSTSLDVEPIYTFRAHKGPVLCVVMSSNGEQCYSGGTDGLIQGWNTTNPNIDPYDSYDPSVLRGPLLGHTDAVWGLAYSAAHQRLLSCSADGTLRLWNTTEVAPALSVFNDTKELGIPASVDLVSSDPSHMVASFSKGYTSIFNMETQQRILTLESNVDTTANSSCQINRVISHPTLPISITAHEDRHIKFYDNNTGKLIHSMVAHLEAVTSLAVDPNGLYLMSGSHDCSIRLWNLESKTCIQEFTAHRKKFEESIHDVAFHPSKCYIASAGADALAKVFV

[3] = molecular target: T3, HA-tagged Δ(227-309) striatin (human, UniProt O43815 1-780, Δ(227-309))
T3 construct: source: HEK293, transfected, in lysate; not shown: HA, N-terminal, kept
T3 sequence (looked up): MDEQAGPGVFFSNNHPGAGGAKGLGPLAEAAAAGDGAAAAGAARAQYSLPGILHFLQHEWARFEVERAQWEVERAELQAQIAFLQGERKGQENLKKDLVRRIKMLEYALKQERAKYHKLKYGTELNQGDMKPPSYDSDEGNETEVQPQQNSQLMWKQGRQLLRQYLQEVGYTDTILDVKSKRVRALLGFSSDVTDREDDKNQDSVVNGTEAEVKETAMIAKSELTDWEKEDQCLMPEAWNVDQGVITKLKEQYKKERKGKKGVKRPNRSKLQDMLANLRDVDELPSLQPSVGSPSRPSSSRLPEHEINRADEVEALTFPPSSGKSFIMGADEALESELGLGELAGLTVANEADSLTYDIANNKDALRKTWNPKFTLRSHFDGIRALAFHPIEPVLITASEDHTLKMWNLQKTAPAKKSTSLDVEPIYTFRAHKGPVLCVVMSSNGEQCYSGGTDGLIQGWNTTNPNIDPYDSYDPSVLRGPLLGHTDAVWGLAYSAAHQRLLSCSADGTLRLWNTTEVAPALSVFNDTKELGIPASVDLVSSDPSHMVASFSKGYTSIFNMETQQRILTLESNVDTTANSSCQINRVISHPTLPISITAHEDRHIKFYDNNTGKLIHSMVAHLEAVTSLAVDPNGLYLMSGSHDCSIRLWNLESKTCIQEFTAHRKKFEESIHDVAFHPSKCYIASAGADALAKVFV

[4] = molecular target: T4, HA-tagged Δ(270-344) striatin (human, UniProt O43815 1-780, Δ(270-344))
T4 construct: source: HEK293 or HEK293 stably expressing FLAG-CCM3, transfected, in lysate; not shown: HA, N-terminal, kept
T4 sequence (looked up): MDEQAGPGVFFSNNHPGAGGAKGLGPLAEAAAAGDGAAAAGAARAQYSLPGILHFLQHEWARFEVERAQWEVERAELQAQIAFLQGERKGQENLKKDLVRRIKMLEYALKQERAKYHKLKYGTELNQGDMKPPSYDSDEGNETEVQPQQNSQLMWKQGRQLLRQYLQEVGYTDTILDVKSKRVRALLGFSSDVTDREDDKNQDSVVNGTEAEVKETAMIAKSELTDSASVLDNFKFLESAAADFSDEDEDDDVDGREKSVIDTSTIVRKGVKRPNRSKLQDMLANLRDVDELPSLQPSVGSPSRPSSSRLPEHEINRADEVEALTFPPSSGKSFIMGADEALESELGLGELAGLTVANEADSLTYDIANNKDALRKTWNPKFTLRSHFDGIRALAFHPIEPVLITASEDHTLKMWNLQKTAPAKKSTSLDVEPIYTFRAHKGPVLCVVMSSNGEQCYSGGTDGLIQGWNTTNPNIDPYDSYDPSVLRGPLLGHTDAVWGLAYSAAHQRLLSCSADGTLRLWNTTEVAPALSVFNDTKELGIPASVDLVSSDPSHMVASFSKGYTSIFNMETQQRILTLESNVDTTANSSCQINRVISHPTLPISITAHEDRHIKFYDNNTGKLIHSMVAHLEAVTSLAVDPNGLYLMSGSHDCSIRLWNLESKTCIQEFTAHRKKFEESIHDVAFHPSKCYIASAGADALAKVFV

[5] = molecular target: T5, HA-tagged R100S/R101E striatin (human, UniProt O43815 1-780, R100S | R101E)
T5 construct: striatin, human, double point mutant in the coiled-coil domain; source: HEK293, transfected, in lysate; not shown: HA, N-terminal, kept
T5 sequence (looked up): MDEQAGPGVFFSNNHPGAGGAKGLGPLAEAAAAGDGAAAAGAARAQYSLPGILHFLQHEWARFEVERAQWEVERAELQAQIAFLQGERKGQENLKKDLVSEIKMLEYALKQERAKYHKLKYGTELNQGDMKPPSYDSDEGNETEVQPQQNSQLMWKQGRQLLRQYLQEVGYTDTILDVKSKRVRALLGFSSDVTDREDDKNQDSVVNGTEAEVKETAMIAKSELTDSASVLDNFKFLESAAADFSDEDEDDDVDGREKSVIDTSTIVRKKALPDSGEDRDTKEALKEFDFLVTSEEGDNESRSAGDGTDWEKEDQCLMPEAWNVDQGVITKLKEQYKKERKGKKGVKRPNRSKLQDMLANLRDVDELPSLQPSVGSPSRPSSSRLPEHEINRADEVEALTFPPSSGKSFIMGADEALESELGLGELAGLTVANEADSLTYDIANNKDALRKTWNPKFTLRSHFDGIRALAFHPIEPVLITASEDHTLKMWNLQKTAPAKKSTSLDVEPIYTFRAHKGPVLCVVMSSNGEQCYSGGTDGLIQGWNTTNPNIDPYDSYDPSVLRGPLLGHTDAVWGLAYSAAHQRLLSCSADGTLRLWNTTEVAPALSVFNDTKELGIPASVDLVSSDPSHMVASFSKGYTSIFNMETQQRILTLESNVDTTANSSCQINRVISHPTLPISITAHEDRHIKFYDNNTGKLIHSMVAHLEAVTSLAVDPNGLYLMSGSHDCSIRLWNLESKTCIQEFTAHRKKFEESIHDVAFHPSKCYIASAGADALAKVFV

fold binding against wild-type striatin [1]: ~3.5 fold
percent reduction in binding against wild-type striatin [2]: ~33%
B1: mammalian Ste20-like kinase Mst3 (enzyme)
chain: not shown
notes: Mst3 kinase, endogenous in HEK293 cells; Runs as a lower and an upper (hyperphosphorylated) band; both are found with striatin; source: endogenous, HEK293 lysate

fold binding against wild-type striatin [1]: ~4 fold
percent reduction in binding against wild-type striatin [2]: 33%
percent reduction in binding against wild-type striatin [3]: 38%
percent reduction in binding against wild-type striatin [4]: 75%
B2: Mst4 kinase (enzyme)
chain: not shown
notes: Mst4 kinase, endogenous in HEK293 cells; source: endogenous, HEK293 lysate

percent of the wild-type level bound [5]: 81 % of wild-type level
B3: S/G2 nuclear autoantigen (SG2NA) (natural protein, human (endogenous in HEK293), UniProt Q13033 1-797, looked up)
chain: MDELAGGGGGGPGMAAPPRQQQGPGGNLGLSPGGNGAAGGGGPPASEGAGPAAGPELSRPQQYTIPGILHYIQHEWARFEMERAHWEVERAELQARIAFLQGERKGQENLKKDLVRRIKMLEYALKQERAKYHKLKYGTELNQGDLKMPTFESEETKDTEAPTAPQNSQLTWKQGRQLLRQYLQEVGYTDTILDVRSQRVRSLLGLSNSEPNGSVETKNLEQILNGGESPKQKGQEIKRSSGDVLETFNFLENADDSDEDEENDMIEGIPEGKDKHRMNKHKIGNEGLAADLTDDPDTEEALKEFDFLVTAEDGEGAGEARSSGDGTEWDKDDLSPTAEVWDVDQGLISKLKEQYKKERKGKKGVKRANRTKLYDMIADLGDDELPHIPSGIINQSRSASTRMTDHEGARAEEAEPITFPSGGGKSFIMGSDDVLLSVLGLGDLADLTVTNDADYSYDLPANKDAFRKTWNPKYTLRSHFDGVRALAFHPVEPVLVTASEDHTLKLWNLQKTVPAKKSASLDVEPIYTFRAHIGPVLSLAISSNGEQCFSGGIDATIQWWNMPSPSVDPYDTYEPNVLAGTLVGHTDAVWGLAYSGIKNQLLSCSADGTVRLWNPQEKLPCICTYNGDKKHGIPTSVDFIGCDPAHMVTSFNTGSAVIYDLETSQSLVILSSQVDSGLQSNNHINRVVSHPTLPVTITAHEDRHIKFFDNKTGKMIHSMVAHLDAVTSLAVDPNGIYLMSGSHDCSIRLWNLDSKTCVQEITAHRKKLDESIYDVAFHSSKAYIASAGADALAKVFV
notes: SG2NA, striatin family member, endogenous in HEK293 cells; source: endogenous, HEK293 lysate
